FireProtDB (doi:10.1021/bi050342n)

B1: Azurin, P00282 (parent)
chain: MLRKLAAVSLLSLLSAPLLAAECSVDIQGNDQMQFNTNAITVDKSCKQFTVNLSHPGNLPKNVMGHNWVLSTAADMQGVVTDGMASGLDKDYLKPDDSRVIAHTKLIGSGEKDSVTFDVSKLKEGEQYMFFCTFPGHSALMKGTLTLK

Variants of: B1
Settings: Pseudomonas aeruginosa (strain ATCC 15692 / DSM 22644 / CIP 104116 / JCM 14847 / LMG 12228 / 1C / PRS 101 / PAO1); pH 7; 25 °C; GdnHCl; Fluorescence, CD; Tris-HCl 100 mM; reversible: Yes; structure 5AZU; whole UniProt chain shown

Variant | ddG of mutation (higher = less stable) | denaturant m value | unfolding free energy
M141A | 2.87 kcal/mol | 4.18 kcal/mol/M | 10 kcal/mol
V25A | 0.96 kcal/mol | 4.06 kcal/mol/M | 11.9 kcal/mol
V80G | 3.11 kcal/mol | 4.18 kcal/mol/M | 9.8 kcal/mol
I101A | 1.43 kcal/mol | 4.78 kcal/mol/M | 11.5 kcal/mol
Y128A | 3.59 kcal/mol | 4.42 kcal/mol/M | 9.32 kcal/mol
W68A | 3.35 kcal/mol | 4.78 kcal/mol/M | 9.56 kcal/mol
L145A | 1.67 kcal/mol | 4.54 kcal/mol/M | 11.2 kcal/mol
V115A | 0.96 kcal/mol | 4.3 kcal/mol/M | 11.9 kcal/mol
L53A | 1.67 kcal/mol | 4.78 kcal/mol/M | 11.2 kcal/mol
L70A | 1.79 kcal/mol | 4.42 kcal/mol/M | 11.1 kcal/mol
I40A | 2.39 kcal/mol | 4.54 kcal/mol/M | 10.5 kcal/mol
V51A | 1.67 kcal/mol | 4.54 kcal/mol/M | 11.2 kcal/mol
V42A | 1.67 kcal/mol | 4.54 kcal/mol/M | 11.2 kcal/mol
A102G | 1.67 kcal/mol | 4.3 kcal/mol/M | 11.2 kcal/mol
I27A | 3.35 kcal/mol | 4.3 kcal/mol/M | 9.56 kcal/mol
